# Measured values published in publication PMC10083539, “Structural insights into plasmalemma vesicle-associated protein (PLVAP): Implications for vascular endothelial diaphragms and fenestrae” (Proceedings of the National Academy of Sciences of the …, 2023).
# Assays:
# [1] = molecular target: T1, hGH fusion with PLVAP ECD from amino acid 143, C-terminal deletion G (fusion protein G of Fig. 9) (Mus musculus, UniProt Q91VC4); experiment: far-Western, overlay or dot blot; immunoblot: hGH-PLVAP deletion fusions in conditioned medium resolved by SDS-PAGE, blots probed with mAb MECA-32 and rabbit anti-hGH, fluorescent secondary antibodies; conditions: one partner purified
# T1 construct: PLVAP, mouse; N terminus at amino acid 143 (QEQLKE...); Limit may be off by one residue; source: HEK/293T, transiently transfected, secreted, in serum-free conditioned medium; not shown: hGH (human growth hormone), N-terminal, kept
# [2] = molecular target: T2, hGH fusion with PLVAP ECD, N-terminal deletion C (fusion protein C of Fig. 9) (Mus musculus, UniProt Q91VC4); experiment: as above; conditions: one partner purified
# T2 construct: PLVAP, mouse; extends to the C terminus of PLVAP; Limit may be off by one residue; source: HEK/293T, transiently transfected, secreted, in serum-free conditioned medium; not shown: hGH (human growth hormone), N-terminal, kept
# [3] = molecular target: T3, hGH fusion with PLVAP ECD from amino acid 104 to the C terminus (fusion protein A of Fig. 9) (Mus musculus, UniProt Q91VC4); experiment: as above; conditions: one partner purified
# T3 construct: PLVAP, mouse; N terminus at amino acid 104 (TRREME...), extends to the C terminus of PLVAP; source: HEK/293T, transiently transfected, secreted, in serum-free conditioned medium; not shown: hGH (human growth hormone), N-terminal, kept
# [4] = molecular target: T4, AP–PLVAP CC2, alkaline phosphatase fused to PLVAP CC2 (Mus musculus, UniProt Q91VC4); experiment: ELISA; MECA-32/hIgG immobilised on protein A-coated 96-well plates (4 °C overnight); conditioned media with AP-PLVAP CC2, 25 °C, 1 h; 10 mM HEPES pH 7.5, 0.15 M NaCl, 0.05% Tween-20 washes; colorimetric AP reaction (BluePhos); conditions: one partner purified
# T4 construct: PLVAP, mouse, CC2; The plasmid codes for AP followed by a Myc tag and an 8xHis tag; source: HEK/293T, in conditioned media
# [5] = molecular target: the molecule itself; experiment: crystal structure; PLVAP CC1; crystal form I (P212121, 0.2 M sodium malonate pH 5.0, 20% PEG3350, sulfur SAD) and crystal form II (I212121, 0.1 M sodium acetate pH 5.0, 15% PEG 4000), 21 °C
# [6] = molecular target: the molecule itself; experiment: SDS-PAGE, reducing vs nonreducing; purified fragments from E. coli SHuffle after 3C cleavage; electrophoretic mobilities in reducing and nonreducing gels; shows disulfide-linked dimers
binder,measurement,setting,value
"MECA-32, anti-PLVAP monoclonal antibody (antibody, V domains shown, heavy-chain constant region of the hybridoma antibody; light-chain constant region of the hybridoma antibody; the blots used the bought antibody of the same clone name; also called rat mAb MECA-32 (553849; BD Biosciences); source: bought: BD Biosciences (553849)) VH: EVQLVESGGGLVQPGRSMKLSCAASGFTFSDYYMAWVRQAPMKGLKWVASISYEGNKTYYGDSVKGRFTISRDNAKSILYLQMNSLKSEDTATYYCARQSYSSYIFDYWGQGVMVTVSS VL: DIQMTQTPSSMSASLGERVTISCGTSQGVNIFLNWYQQKPDGTIKPLIFFTSHLQSGVPSRFSGSGSGTAYSLTISSLEPEDFAVYYCQQYDSSPPTFGGGTKLYLK",binding result,[1],binds
same,binding result,[2],binds
same,binding result,[3],binds
"MECA-32/hIgG, engineered MECA-32 antibody with human constant regions (antibody, V domains shown, mature VH of MECA-32; human heavy-chain IgG constant region (CH1, CH2 and CH3) with an HRV 3C protease cleavage site between CH1 and CH2; mature VL of MECA-32; human light-chain constant region (CL); Chimeric IgG; held on protein A-coated wells in the assay; also called MECA-32/IgG; engineered MECA-32 Ab; source: HEK/293T, cotransfected heavy- and light-chain plasmids, purified from conditioned …) VH: EVQLVESGGGLVQPGRSMKLSCAASGFTFSDYYMAWVRQAPMKGLKWVASISYEGNKTYYGDSVKGRFTISRDNAKSILYLQMNSLKSEDTATYYCARQSYSSYIFDYWGQGVMVTVSS VL: DIQMTQTPSSMSASLGERVTISCGTSQGVNIFLNWYQQKPDGTIKPLIFFTSHLQSGVPSRFSGSGSGTAYSLTISSLEPEDFAVYYCQQYDSSPPTFGGGTKLYLK",binding result,[4],binds
"PLVAP CC1, residues 141 to 229 (domain or fragment, mouse, UniProt Q91VC4 141-229, looked up, PLVAP, mouse, coiled-coil segment CC1, residues 141 to 229 (89 amino acids); Parallel dimer with five interchain disulfide bonds; also called pPMS1170; source: E. coli SHuffle T7, purified (IMAC, 3C protease cleavage, IMAC, SEC); not shown: thioredoxin (E. coli TrxA), N-terminal, cleaved; 8xHis, N-terminal, cleaved) QCQEQLKEVNKTCEALLFKLGEKVKTLEMEVAKEKAVCSKDKESLLAGKRQTEEQLEACGKARERQQQEQQVTEENLRKVQSLCIPLDQ",stoichiometry N,[5],2
"PLVAP extracellular domain (full-length ECD), residues 52 to 438 (domain or fragment, mouse, UniProt Q91VC4 52-438, looked up, plasmalemma vesicle-associated protein (PLVAP), mouse, extracellular domain, residues 52 to 438; also called PLVAP ECD; pXG61; source: E. coli SHuffle T7, purified (IMAC, 3C protease cleavage, IMAC, SEC); not shown: thioredoxin (E. coli TrxA), N-terminal, cleaved; 8xHis, N-terminal, cleaved) HATTESSLRATEIRADSLYSQVVGLSASQANLSKQLNISLLVKETVMQQLLTTRREMERINASFRQCQGDLITYINYNRFIAAIILSEKQCQEQLKEVNKTCEALLFKLGEKVKTLEMEVAKEKAVCSKDKESLLAGKRQTEEQLEACGKARERQQQEQQVTEENLRKVQSLCIPLDQEKFQADVLSAWRDSLIYRTLETLPYHYQLMPEYASLRRTCESLPGIMTTKIEELARGLRAGIERVTRENAELRRQKLELERAAQAAQEARARAGTEAQARETQLRAECARQTQLALEEKAALRAQRDNLERELEARKRELEQLRTEVDVRISALDTCVKAKSLPAVPPRVSGPPPNPPPIDPASLEEFKKRILESQRLPVVNPAAQPSG",binding result,[6],binds
"PLVAP CC2, residues 270 to 395 (domain or fragment, mouse, UniProt Q91VC4 270-395, looked up, PLVAP, mouse, coiled-coil segment CC2, residues 270 to 395; also called pXG52; source: E. coli SHuffle T7, purified (IMAC, 3C protease cleavage, IMAC, SEC); not shown: thioredoxin (E. coli TrxA), N-terminal, cleaved; 8xHis, N-terminal, cleaved) ESLPGIMTTKIEELARGLRAGIERVTRENAELRRQKLELERAAQAAQEARARAGTEAQARETQLRAECARQTQLALEEKAALRAQRDNLERELEARKRELEQLRTEVDVRISALDTCVKAKSLPAV",binding result,[6],binds
